The supplement of paper PMC9170038

Tested on: MS2 coat protein
Test: apparent KD of MS2 coat protein; designed switch direction (-1 OFF switch, 1 ON switch): -1; higher = weaker reporter binding
In short: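 The buffer was Tris-HCl pH 7.5 with KCl, MgCl2, BSA, DTT, tRNA and Tween-20. In it, SNAP-549-labelled MS2 coat protein was titrated in doubling steps from 0.7 or 1.5 nM to 3 µM over chip-bound RNA switches transcribed by stalled E. coli RNA polymerase on Illumina chips. Apparent KD is the per-design median over clusters of curve fits to normalised fluorescence.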

[1] = Eterna round: R95, input ligand: FMN 200 uM
[2] = Eterna round: R95, input ligand: microRNA oligo, concentration not stated
[3] = Eterna round: R95, input ligand: none
[4] = input ligand: microRNA oligo, concentration not stated

Row | Sequence | apparent KD of MS2 coat protein [2] | apparent KD of MS2 coat protein (input ligand: FMN 200 uM) | apparent KD of MS2 coat protein (input ligand: none) | also measured
1 | AAGAAGAUAGGAUAUACGAGGAGAGGAGAGAAGAGGUGAGGACAUGAGGAUCACCCAUGUAGAAGGAUCAGGAA [JR_Exclu2_Sub063] (puzzle: Exclusion 2) | 266 nM | – | – | apparent KD of MS2 coat protein [1]: 88.7 nM; apparent KD of MS2 coat protein [3]: 176 nM
2 | GAGGAGGUAGGAUAUACGAUAAUAUAGGGUAGAUAUAUAACACAUGAGGAUCACCCAUGUAGAAGGACCAGGAG [Mat - Exclusion 2 - Mod of my Tesla design - D64] (puzzle: Exclusion 2) | 36.7 nM | – | – | –
3 | GUCAGCUCGUGAGGAUAUACAUCACUGCUUCGGCAGUGUAUUAAGAUCACAUGAGGAUCACCCAUGUAGAAGGCACGAGCUGAU [ENG2/2-A2] (Eterna round: R96, puzzle: Exclusion NG 2) | – | 1020 nM | 39 nM | apparent KD of MS2 coat protein [4]: 27.6 nM
4 | CCAAGCUUAUUCAUUAACAACAUGAGGAUCACCCAUGUAUAGGCAAUUAUGUUUGGGCUCUUUAGUGCUCGUCUUAU [Sensor-V1 #23] (Eterna round: R97, puzzle: Sensor, turn-off variant 1) | – | 16.1 nM | 15.5 nM | –
5 | CCCGAUGGAUAGGAUAUCCGGCAAGUAUGCUAUGGAGAAGGGUUCACAUGAGGAUCACCCAUGUGGGUUAAACG [Eternabot (L1) Solution 74] (Eterna round: R97, puzzle: Exclusion 6) | – | 22 nM | 19.3 nM | –
6 | CUGCUGGAGCUUUGCUUUAGUCGUACAUGAGGAUCACCCAUGUAGGAUAUGGUAGGCUUUGCUUACUAGAAGGAUAGAGUGGUC [salish99_ExNG3_r04_606] (Eterna round: R96, puzzle: Exclusion NG 3) | – | 226 nM | 62 nM | apparent KD of MS2 coat protein [4]: 66.6 nM
7 | CAUACACAUGAGGAUCACCCAUGUGAGGAUAUGAAUACGUUGUCCGUAGGCGACGUGAUCAGAAGGCGCUUGGU [Mat - Mod of JL D100] (puzzle: Exclusion 1) | 44 nM | – | – | –
8 | UAAGAGUGAGGAUAUACGUCGCUGGUCGGGAUGGACGCAUGACAUGAGGAUCACCCAUGUAGAAGGCACAAAAC [Enxela Mod 10 - Jieux - Exclusion 2] (Eterna round: R97, puzzle: Exclusion 2) | – | 87.6 nM | 25.4 nM | –
9 | UAAUUUUUAGUAAGGAUAUCGGUCCCAAGGGACAACGAGAAGGUACAUGAGGAUCACCCAUGUUACGAAAGAAU [Mod of Zala 10 - Jieux - Brourd's Mod of Exclusion 4] (Eterna round: R97, puzzle: Brourd's mod of Exclusion 4) | – | 17.6 nM | 18 nM | –
10 | UAAUGUAUAUAGGAUAUCUAGCUGGAAACAGCUAGAGAAGGAUGUACAUGAGGAUCACCCAUGUAAAUCAAUAA [Ex6/9-A1] (Eterna round: R97, puzzle: Exclusion 6) | – | 57.5 nM | 19.5 nM | –
11 | GAUCCUUAAGUCAGGAUAUCAAGCAAACUCAAAAUUGAGAAGGGACAUGAGGAUCACCCAUGUCACCGAAAUAA [Reteisus] (puzzle: Brourd's mod of Exclusion 4) | 8.98 nM | – | – | apparent KD of MS2 coat protein [1]: 10.1 nM; apparent KD of MS2 coat protein [3]: 10.6 nM
12 | GCCUCACUUGAGGAUCACCCAAGUCAGGAUAUCUACAAGCCGGCCAUGCCAGCUUGCAAGAGAAGGGACUCUAA [Diazale] (Eterna round: R97, puzzle: Exclusion 1) | – | 205 nM | 31.6 nM | –
13 | UUUUAACAUGAGGAUCACCCAUGUGAGGAUAUCGAAAUUUAUAUUAAUAUUUUUAUAUCGAGAAGGCACAUUUU [JMF 72] (puzzle: Exclusion 1) | 84.7 nM | – | – | –
14 | CAGGUGUUAGGAUAUCGGAGAUUGAGGCAGACGGGAAUAUUCGAGAAGGAACAUGAGGAUCACCCAUGUAGUAG [JR_Exclu4_Sub036] (puzzle: Exclusion 4) | 23.9 nM | – | – | –
15 | CCCAGUUAUCAAGGAUAUUGUACAUGAGGAUCACCCAUGUAAUAAAUGAGGAUUUCGGGUGUCUACAAGAAGGUGAGGAUAGGC [Ostracism 15 - Jieux - Exclusion NG 2] (Eterna round: R96, puzzle: Exclusion NG 2) | – | 26.6 nM | 46.4 nM | apparent KD of MS2 coat protein [4]: 22.4 nM
16 | CCUAGUGUCGGAGGAUAUCCUACACAAACCUUAGGAGAAGGCCGACAUGAGGAUCACCCAUGUAAAACCUAAACCUAAAAUCAA [Raesusbi] (Eterna round: R96, puzzle: Exclusion NG 1) | – | 48.9 nM | 15.2 nM | apparent KD of MS2 coat protein [4]: 12.8 nM
17 | AGAGUGCUGCGAGGAUAUACAUGAGGAUCACCCAUGUAAACGUGUGAGGCAAAGCCUCACACGAUGUAGAAGGCGCAGUACUCA [Mat - Exclusion NG 2 - Mod of JL - D37] (Eterna round: R96, puzzle: Exclusion NG 2) | – | 19.6 nM | 21.5 nM | apparent KD of MS2 coat protein [4]: 11.7 nM

Row | Sequence | apparent KD of MS2 coat protein [2] | apparent KD of MS2 coat protein (input ligand: FMN 200 uM) | apparent KD of MS2 coat protein (input ligand: none) | also measured
18 | UUUCCCUGGCAAGGAUAUCCUGUGCGGUUCCGGCUCGUGUCUGUUACAUGAGGAUCACCCAUGUGGGAGAAGGUGCCUGUGGCU [Design 91] (Eterna round: R96, puzzle: Exclusion NG 2) | – | – | – | apparent KD of MS2 coat protein [4]: 47.4 nM
19 | UGCAUGGUAGGAUAUACGGAGCAUUAGGGUUUGUUAUGUGGACAUGAGGAUCACCCAUGUAGAAGGGCCGUGCU [JL-ex2-2.16 mat747 mod] (puzzle: Exclusion 2) | 32.6 nM | – | – | –
20 | ACACCACAUGAGGAUCACCCAUGUAAGGAUAUAACGCAUCCGCGUAACUGCGGGCAAGUUAGAAGGUGUAUGGG [Eternabot (L2) Solution 91] (Eterna round: R97, puzzle: Exclusion 1) | – | 91.9 nM | 49.6 nM | –
21 | GCCCAGUUAGGAUAUACAUGUCACGUCCUAACGGUCGAAGGACAUGAGGAUCACCCAUGUAGAAGGGACCGGCA [Onraonbe] (Eterna round: R97, puzzle: Exclusion 2) | – | 17.7 nM | 21.2 nM | –
22 | GUAAAGUGAGGAUAUGGUGAGUAGUGCCUGAGCGCUGCUCACCAGAAGGCACAUGAGGAUCACCCAUGUAUAGC [Mat - Exclusion 4 - Mod of JL - D17] (puzzle: Exclusion 4) | 14 nM | – | – | –
23 | UCAUGUCCAGAGGAUAUGUAGAUCGAGAGAUCAACAGAAGGCUGGACAUGAGGAUCACCCAUGUGCGCCUUCAA [jl-ex3-4.29 ViennaUCT mod] (Eterna round: R97, puzzle: Exclusion 6) | – | 70.6 nM | 188 nM | –
24 | AACAAACAUGAGGAUCACCCAUGUCAGGAUAUGGCGGCUAGUGUGCCACCGUACACUACCAGAAGGGACUGGGU [Diedtiis] (puzzle: Exclusion 1) | 111 nM | – | – | –
25 | ACCAGUAUAUGGAGAUUUUACAUGAGGAUCACCCAUGUUGGGACAGCUUUUUGCUUGUCUUAUCCUACUUUGUGUGU [Design #3] (Eterna round: R97, puzzle: Sensor, turn-off variant 1) | – | 32.2 nM | 36 nM | –
26 | GCAGCAUAGUUUACUAACUGUUACAUGAGGAUCACCCAUGUCUAGGAUAUGGUCUGGAUUACAGGCCAGAAGGAGAAAAGCUGC [Eli exng3 - 036] (Eterna round: R96, puzzle: Exclusion NG 3) | – | 15.3 nM | 16.8 nM | apparent KD of MS2 coat protein [4]: 13 nM
27 | CCGGAAUUGCAGGAUAUAGGAGUCGAUAGACACCUAGAAGGGCAGACAUGAGGAUCACCCAUGUGUCCUACCGG [Fiskers Ex 6 - 84] (puzzle: Exclusion 6) | 17.4 nM | – | – | –
28 | UCUCGUUGGCAAGGAUAUCCUACAUUGUUCUGGCCCGGGCAUGCUACAUGAGGAUCACCCAUGUGGGAGAAGGUGCGCCACUGC [Design 25] (Eterna round: R96, puzzle: Exclusion NG 2) | – | 95.5 nM | 108 nM | apparent KD of MS2 coat protein [4]: 67.6 nM
29 | UACUUAUGAGUCAGGAUAUGUGAGGCGGAAGCGAUACAGAAGGGACAUGAGGAUCACCCAUGUUGGGUUCCUGU [Eternabot (Original) Solution 32] (Eterna round: R97, puzzle: Brourd's mod of Exclusion 4) | – | 526 nM | 83.5 nM | –
30 | UUUUUCUGGCAAGGAUAUCCUGUGCGGUUCCGGCUCGUGUCUGUUACAUGAGGAUCACCCAUGUGGGAGAAGGUGCCUGUGGUU [Design 88] (Eterna round: R96, puzzle: Exclusion NG 2) | – | 94.2 nM | 35.3 nM | apparent KD of MS2 coat protein [4]: 26.9 nM
31 | CAUUACUACAAGCUUGGGAACAUGAGGAUCACCCAUGUUCGUCUUAUUGAUCUAGGUACGCUGACGUACCUAGAUCU [JL-sv1-2.24 Brourd mod] (puzzle: Sensor v3, turn-off variant 1) | 21.7 nM | – | – | apparent KD of MS2 coat protein [1]: 14.3 nM; apparent KD of MS2 coat protein [3]: 13.3 nM
32 | UUUAGUUUAGGAUAUGUAGAUUUUAACAUGAGGAUCACCCAUGUAGAUCCUGAAUUAACUACAGAAGGGAGCAUUU [Mod of Brourd 15 - Jieux - Exclusion 5] (Eterna round: R97, puzzle: Exclusion 5) | – | 70.5 nM | 68.2 nM | –
33 | CAGCGUGAAGGAUAUACAUGAGGAUCACCCAUGUGCAACUCUCCAACUCGGACUCCCUGUAGAAGGUCGGCUUU [Eternabot (L2) Solution 88] (Eterna round: R97, puzzle: Exclusion 3) | – | 26.9 nM | 28 nM | –
34 | AGUAGUUGUUUCCGUUCUUACAUGAGGAUCACCCAUGUUUCUUGUCGUGCUCGCGUUGCUCGUCAGACUUCCUGUUG [salish99_TOv1_r3_063] (puzzle: Sensor v3, turn-off variant 1) | 102 nM | – | – | apparent KD of MS2 coat protein [1]: 87.2 nM; apparent KD of MS2 coat protein [3]: 123 nM
